Measured values reported in US20210077592A1, “COMPOSITION TO PREVENT INTESTINAL DAMAGE” (FUSION FARM S.R.L. SEMPLIFICATA, priority 2017, published 2021).

Key:
[1] = Solubility of lactoferrin in aqueous solution in the presence of sodium butyrate; assay type: physicochemical; conditions: with or without added sodium butyrate
Procedure: Various solutions, with increasing ratios between sodium butyrate amount and lactoferrin amount, were prepared to verify the possible effect of sodium butyrate addition on lactoferrin solubility in aqueous solution.
In particular, ten different mixtures were prepared, whose weight rations are set out in the following Table 1, and the presence of undissolved body of lactoferrin was observed as a function of the increasing amount of sodium butyrate added to the solution.

[2] = system: Caco-2 cells; assay: Lucifer Yellow (LY) assay of paracellular permeability in Caco-2 intestinal damage model; assay type: cell-based
Procedure: A protocol was developed based on Caco-2 cell inserts model (CACOREADY™ cells, lot no. 24 676 101716 and no. 24 680 111416, Readycell manufacturer) consisting in two steps:
1. Induction of epithelial damage (40 h incubation in glutamine free medium followed by stress induced by 60 mM ethanol for 4 h)
2. Evaluation of the single products first, and then applied in combination during stress induced by the absence of glutamine (60 h), and with subsequent stress induced by ethanol, to evaluate the efficacy in preventing damage. […]
Cells without damage induction (NC=without damage) and with damage induction (PC) were evaluated with the Lucifer Yellow (LY) assay, which verifies the integrity of the cellular junctions in presence of the test substance. […]
According to the experimental protocol, to evaluate the efficacy of the composition of the invention in damage prevention, sodium butyrate (2 mM concentration) and lactoferrin (400 μg/ml concentration), either alone or in combination, were applied on Caco-2 cells during stress induced by absence of glutamine, increasing the time of said deprivation, with respect to the conditions tested during the development of the model, and therefore of stress induction, to 60 hours, to make more evident differences in cells behavior in the different treatment situations. […] The parameters were evaluated at the end. […]

[3] = system: Caco-2 cells; assay: Electron Microscopy (SEM) of microvilli of Caco-2 cells after damage induction; assay type: cell-based; conditions: pretreatment 60 h without glutamine, then 60 mM ethanol 4 h, 750x-10000x
Procedure: The same cells without damage induction (NC) and with damage induction (PC), as indicated above, were finally evaluated by Electron Microscopy (SEM) at different magnifications.
(§1) According to the experimental protocol, to evaluate the efficacy of the composition of the invention in damage prevention, sodium butyrate (2 mM concentration) and lactoferrin (400 μg/ml concentration), either alone or in combination, were applied on Caco-2 cells during stress induced by absence of glutamine, increasing the time of said deprivation, with respect to the conditions tested during the development of the model, and therefore of stress induction, to 60 hours, to make more evident differences in cells behavior in the different treatment situations. At the end of 60 hours, the products were removed, and damage was induced for 4 h with 60 mM ethanol. The parameters were evaluated at the end.
The same cells were finally evaluated also by Electron Microscopy SEM, at various magnifications.

[4] = system: Occludin and Zonula Occludens in Caco-2 cells; assay: Fluorescence immunolabeling of Occludin and Zonula Occludens in Caco-2 cells after damage induction; assay type: cell-based; conditions: pretreatment 60 h without glutamine, then 60 mM ethanol 4 h
Procedure: As it can be seen by FIG. 1, the damage induced an increase in permeability. The same cells without damage induction (NC) and with damage induction (PC), as indicated above, were further evaluated by fluorescence immunolabeling of Occludina and Zonula Occludens (proteins present in the intestinal membrane intracellular junctions).
as §1
To confirm the observed behavior, an evaluation using fluorescence immunolabeling of Occludin and Zonula Occludens was also performed.

B1: lactoferrin (protein, UniProt P02788 20-710, looked up)
Lactotransferrin: GRRRSVQWCAVSQPEATKCFQWQRNMRKVRGPPVSCIKRDSPIQCIQAIAENRADAVTLDGGFIYEAGLAPYKLRPVAAEVYGTERQPRTHYYAVAVVKKGGSFQLNELQGLKSCHTGLRRTAGWNVPIGTLRPFLNWTGPPEPIEAAVARFFSASCVPGADKGQFPNLCRLCAGTGENKCAFSSQEPYFSYSGAFKCLRDGAGDVAFIRESTVFEDLSDEAERDEYELLCPDNTRKPVDKFKDCHLARVPSHAVVARSVNGKEDAIWNLLRQAQEKFGKDKSPKFQLFGSPSGQKDLLFKDSAIGFSRVPPRIDSGLYLGSGYFTAIQNLRKSEEEVAARRARVVWCAVGEQELRKCNQWSGLSEGSVTCSSASTTEDCIALVLKGEADAMSLDGGYVYTAGKCGLVPVLAENYKSQQSSDPDPNCVDRPVEGYLAVAVVRRSDTSLTWNSVKGKKSCHTAVDRTAGWNIPMGLLFNQTGSCKFDEYFSQSCAPGSDPRSNLCALCIGDEQGENKCVPNSNERYYGYTGAFRCLAENAGDVAFVKDVTVLQNTDGNNNEAWAKDLKLADFALLCLDGKRKPVTEARSCHLAMAPNHAVVSRMDKVERLKQVLLHQQAKFGRNGSDCPDKFCLFQSETKNLLFNDNTECLARLHGKTTYEKYLGPQYVAGITNLKKCSTSPLLEACEFLRK
notes: antimicrobial and iron-carrying glycoprotein; B=400 μg/ml lactoferrin
With B1 the “dissolution of lactoferrin in aqueous solution, result in words” value [1] was “completely undissolved body in suspension”, the “reduction in LY flux with respect to positive control (PC)” value ([2]; product applied during 60 h glutamine deprivation, then 60 mM ethanol 4 h, 2 mM sodium butyrate and/or 400 μg/ml lactoferrin) was “about 12%” and the “permeability (LY), result in words” value ([2]; treatment at the same time as damage induction) was “not substantially changed compared to the negative control”. The “effect on microvilli / villous atrophy by SEM, result in words” value [3] was “positive effect on the villi functionality” and the “fluorescence intensity / expression of tight junction proteins (Occludin, Zonula Occludens), result in words” value [4] was “good level of expression of the tight junctions' markers”.
